Source: US20120225071A1 (Hoffmann-La Roche, published 2012)

T1: human ANGPT2 (R&D Systems) (human, UniProt O15123 68-496, limits assumed)
T1 construct: Bought reagent; also called hANGPT2; Angiopoietin-2
T1 sequence (looked up): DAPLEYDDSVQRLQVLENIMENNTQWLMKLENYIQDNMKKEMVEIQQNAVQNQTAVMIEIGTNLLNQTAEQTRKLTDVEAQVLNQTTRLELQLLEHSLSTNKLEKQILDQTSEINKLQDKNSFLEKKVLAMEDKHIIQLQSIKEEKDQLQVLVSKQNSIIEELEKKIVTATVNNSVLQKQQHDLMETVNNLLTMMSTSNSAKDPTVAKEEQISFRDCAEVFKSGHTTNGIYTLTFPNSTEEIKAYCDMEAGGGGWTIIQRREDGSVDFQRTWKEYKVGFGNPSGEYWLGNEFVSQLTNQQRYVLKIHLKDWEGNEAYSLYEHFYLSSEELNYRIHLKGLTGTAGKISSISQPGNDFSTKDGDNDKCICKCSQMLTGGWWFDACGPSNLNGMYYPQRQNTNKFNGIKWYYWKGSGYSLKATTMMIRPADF

B1: wildtype <IGF-1R> antibody (antibody, V domains shown)
VH: QVELVESGGGVVQPGRSQRLSCAASGFTFSSYGMHWVRQAPGKGLEWVAIIWFDGSSTYYADSVRGRFTISRDNSKNTLYLQMNSLRAEDTAVYFCARELGRRYFDLWGRGTLVSVSS
VL: EIVLTQSPATLSLSPGERATLSCRASQSVSSYLAWYQQKPGQAPRLLIYDASKRATGIPARFSGSGSGTDFTLTISSLEPEDFAVYYCQQRSKWPPWTFGQGTKVESKR
notes: Human IgG1/kappa antibody described in WO 2005/005635; also called <IGF-1R> wildtype antibody; <IGF-1R> control antibody
B2: monospecific, bivalent <ANGPT2> wildtype antibody (antibody, V domains shown)
VH: EVQLVQSGGGVVQPGRSLRLSCAASGFTFSSYGMHWVRQAPGKGLEWVSYISSSGSTIYYADSVKGRFTISRDNAKNSLYLQMNSLRAEDTAVYYCARDLLDYDILTGYGYWGQGTLVTVSS
VL: not shown
notes: Human IgG1/kappa antibody described in WO 2006/045049; also called wildtype <ANGPT2> antibody; <Ang-2> control antibody

Assays:
[1] = molecular target: T1, human ANGPT2 (R&D Systems); experiment: cellular FACS IGF-1R-ANGPT2 bridging assay on I24 cells; antibody on cells, then ANGPT2, detected with biotinylated anti-ANGPT2 and Streptavidin-PE
Protocol: (§1) The assay principle is depicted in FIG. 10.
(§2) Briefly, 5×10E5 I24 cells per FACS tube were incubated with total purified antibody mix and incubated on ice for 1 h (titration 160 μg/ml mix). The respective purified antibodies wildtype <IGF-1R> and <ANGPT2> were applied to the I24 cells as controls. Unbound antibody was washed away with 4 ml ice cold PBS (Gibco)+2% FCS (Gibco), cells were centrifuged (5 min at 400 g) and bound bispecific antibody was detected with 50 μl 2 μg/mL human ANGPT2 (R&D Systems) for 1 h on ice. Subsequently, unbound ANGPT2 was washed away once or twice with 4 ml ice cold PBS (Gibco)+2% FCS (Gibco), cells were centrifuged (5 min at 400 g) and bound ANGPT2 was detected with 50 μl 5 μg/mL <ANGPT2>mIgG1-Biotin antibody (BAM0981, R&D Systems) for 45 min on ice; alternatively, cells were incubated with 50 μl 5 μg/mL mIgG1-Biotin-Isotype control (R&D Systems). Unbound detection antibody was washed away with 4 ml ice cold PBS (Gibco)+2% FCS (Gibco), cells were centrifuged (5 min at 400 g) and bound detection antibody was detected with 50 μl 1:400 Streptavidin-PE conjugate (Invitrogen/Zymed) for 45 min on ice protected from light. Unbound Streptavidin-PE conjugate was washed away with 4 ml ice cold PBS+2% FCS. […]

[2] = molecular target: T2, recombinant human IGF-1R on I24 cells (NIH3T3 cells expressing recombinant human IGF-1R) (human, UniProt P08069 31-1367); experiment: cellular FACS IGF-1R-ANGPT2 bridging assay on I24 cells; antibody on cells, washed, then ANGPT2, detected with biotinylated anti-ANGPT2 and Streptavidin-PE
T2 construct: whole, on cells; also called IGF-1R in I24 cells
Protocol: as §1, §2

Binder | binding result [1] | binding result [2]
B1 | no binding (tested: 2 µg/mL human ANGPT2) | –
B2 | – | no binding
